Source: publication doi:10.1101/2023.03.07.531120 (bioRxiv, 2023)
Where no end group is shown, it is not given here. The star is where a group is joined. FITC = O=C1OC2(c3ccc(O)cc3Oc3cc(O)ccc32)c2ccc(NC(=S)*)cc21; Oleoyl = CCCCCCCC/C=C\CCCCCCCC(=O)*

Target: T1, AP2 μ2 subunit (in the mouse AP2 core) (mouse, UniProt P84091 1-435)
T1 sequence: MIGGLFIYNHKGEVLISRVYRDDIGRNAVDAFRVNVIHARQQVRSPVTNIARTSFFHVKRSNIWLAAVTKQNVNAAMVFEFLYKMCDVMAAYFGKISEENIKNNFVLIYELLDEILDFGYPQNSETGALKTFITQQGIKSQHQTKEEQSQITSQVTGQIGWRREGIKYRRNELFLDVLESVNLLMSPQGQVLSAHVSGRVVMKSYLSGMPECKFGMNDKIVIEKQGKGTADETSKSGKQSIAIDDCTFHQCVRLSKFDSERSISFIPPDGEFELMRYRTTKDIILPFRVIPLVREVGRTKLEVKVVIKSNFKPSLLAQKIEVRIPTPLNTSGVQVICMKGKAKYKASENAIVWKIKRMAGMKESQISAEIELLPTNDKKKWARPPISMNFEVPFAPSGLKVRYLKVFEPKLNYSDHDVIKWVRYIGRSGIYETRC
Assay: cryo-EM structure

binding result: binds
Binder: Oleoyl-SK(FITC)KVTRRPKASDYQRL [Lipidated YxxΦ-cargo peptide of Tgn38 (Oleic acid-S{Lys(FITC)}KVTRRPKASDYQRL)]
